Assays:
CHIKV VLP = CHIKV VLP (chikungunya virus (CHIKV), UniProt Q8JUX5 810-1248; Q8JUX5 326-748)
[1] = target: T1, WEEV Env-pseudotyped lentiviral reporter virus (Western equine encephalitis virus (WEEV), UniProt P13897 798-1236; P13897 320-742); test: cell-based or functional assay
T1 sequence 1: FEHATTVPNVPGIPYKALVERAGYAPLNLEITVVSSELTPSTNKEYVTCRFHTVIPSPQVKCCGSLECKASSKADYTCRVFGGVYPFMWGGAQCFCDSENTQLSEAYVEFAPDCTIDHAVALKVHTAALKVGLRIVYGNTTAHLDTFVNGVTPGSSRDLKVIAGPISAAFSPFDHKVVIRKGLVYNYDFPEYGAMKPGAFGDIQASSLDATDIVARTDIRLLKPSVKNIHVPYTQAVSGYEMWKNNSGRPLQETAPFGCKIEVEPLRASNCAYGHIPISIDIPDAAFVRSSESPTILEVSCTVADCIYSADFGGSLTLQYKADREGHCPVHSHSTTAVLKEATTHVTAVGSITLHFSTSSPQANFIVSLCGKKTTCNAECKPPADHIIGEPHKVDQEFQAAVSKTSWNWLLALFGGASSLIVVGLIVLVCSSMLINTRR
T1 sequence 2: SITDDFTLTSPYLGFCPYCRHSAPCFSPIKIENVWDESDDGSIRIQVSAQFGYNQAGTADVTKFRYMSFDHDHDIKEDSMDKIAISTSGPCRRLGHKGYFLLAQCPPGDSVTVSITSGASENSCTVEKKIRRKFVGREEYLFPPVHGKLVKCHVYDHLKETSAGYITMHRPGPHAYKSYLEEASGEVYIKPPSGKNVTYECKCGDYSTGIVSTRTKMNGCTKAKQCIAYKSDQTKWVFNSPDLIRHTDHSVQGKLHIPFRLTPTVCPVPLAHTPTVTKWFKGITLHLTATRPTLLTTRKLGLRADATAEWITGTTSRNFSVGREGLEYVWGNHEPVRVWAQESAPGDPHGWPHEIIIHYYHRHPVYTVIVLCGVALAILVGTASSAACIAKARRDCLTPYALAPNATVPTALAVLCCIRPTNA

[2] = target: T2, EEEV Env-pseudotyped lentiviral reporter virus (Eastern equine encephalitis virus (EEEV), UniProt P08768 799-1239; P08768 323-742); test: cell-based or functional assay
T2 sequence 1: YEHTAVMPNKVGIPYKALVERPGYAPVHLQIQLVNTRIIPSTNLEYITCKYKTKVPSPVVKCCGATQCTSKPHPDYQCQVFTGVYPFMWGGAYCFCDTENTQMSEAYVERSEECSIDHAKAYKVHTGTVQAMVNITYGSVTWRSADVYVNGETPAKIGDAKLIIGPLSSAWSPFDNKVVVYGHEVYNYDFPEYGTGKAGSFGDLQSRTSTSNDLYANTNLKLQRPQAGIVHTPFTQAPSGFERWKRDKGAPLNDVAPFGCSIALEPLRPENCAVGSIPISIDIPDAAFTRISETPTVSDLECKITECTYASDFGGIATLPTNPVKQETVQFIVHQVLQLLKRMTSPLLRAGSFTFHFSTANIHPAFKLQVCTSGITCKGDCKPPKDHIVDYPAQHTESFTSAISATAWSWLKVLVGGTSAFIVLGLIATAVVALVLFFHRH
T2 sequence 2: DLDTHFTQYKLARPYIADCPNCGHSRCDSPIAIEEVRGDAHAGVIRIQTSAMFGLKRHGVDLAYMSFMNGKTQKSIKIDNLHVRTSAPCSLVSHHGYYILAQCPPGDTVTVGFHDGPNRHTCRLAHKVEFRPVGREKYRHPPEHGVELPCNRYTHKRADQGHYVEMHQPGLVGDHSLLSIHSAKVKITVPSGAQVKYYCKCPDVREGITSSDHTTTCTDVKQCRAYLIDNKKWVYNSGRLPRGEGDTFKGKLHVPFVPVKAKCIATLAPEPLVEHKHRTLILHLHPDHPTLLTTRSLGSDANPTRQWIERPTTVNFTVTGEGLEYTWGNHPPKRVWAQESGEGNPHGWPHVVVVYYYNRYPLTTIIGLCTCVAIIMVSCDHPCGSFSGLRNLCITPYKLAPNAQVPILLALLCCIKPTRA

[3] = target: T3, VEEV Env-pseudotyped lentiviral reporter virus (Venezuelan equine encephalitis virus …, UniProt P09592 813-1254; P09592 335-757); test: cell-based or functional assay
T3 sequence 1: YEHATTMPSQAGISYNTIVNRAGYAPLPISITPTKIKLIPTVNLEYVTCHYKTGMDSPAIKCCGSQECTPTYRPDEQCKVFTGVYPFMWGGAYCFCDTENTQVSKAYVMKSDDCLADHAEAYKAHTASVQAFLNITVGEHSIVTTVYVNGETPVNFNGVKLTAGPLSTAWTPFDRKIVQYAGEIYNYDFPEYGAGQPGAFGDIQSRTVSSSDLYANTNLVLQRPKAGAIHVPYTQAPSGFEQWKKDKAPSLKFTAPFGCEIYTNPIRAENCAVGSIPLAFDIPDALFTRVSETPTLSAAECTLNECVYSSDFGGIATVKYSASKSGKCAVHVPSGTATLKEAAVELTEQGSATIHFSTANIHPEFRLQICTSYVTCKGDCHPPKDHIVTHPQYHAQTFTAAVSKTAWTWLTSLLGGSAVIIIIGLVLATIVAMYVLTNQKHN
T3 sequence 2: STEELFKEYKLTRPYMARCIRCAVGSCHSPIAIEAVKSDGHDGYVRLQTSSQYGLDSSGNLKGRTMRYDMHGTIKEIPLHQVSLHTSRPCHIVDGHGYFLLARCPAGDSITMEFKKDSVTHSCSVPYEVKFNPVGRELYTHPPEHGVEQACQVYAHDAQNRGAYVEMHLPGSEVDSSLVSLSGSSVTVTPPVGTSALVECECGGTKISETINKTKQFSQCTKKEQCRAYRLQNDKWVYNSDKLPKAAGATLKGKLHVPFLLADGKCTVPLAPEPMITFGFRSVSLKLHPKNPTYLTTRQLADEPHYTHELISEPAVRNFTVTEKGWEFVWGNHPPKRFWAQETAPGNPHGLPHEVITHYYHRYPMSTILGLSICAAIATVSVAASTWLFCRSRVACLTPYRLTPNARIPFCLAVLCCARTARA

Chain of CHIKV VLP (Q8JUX5 810-1248 limits assumed, chain 1 of 2): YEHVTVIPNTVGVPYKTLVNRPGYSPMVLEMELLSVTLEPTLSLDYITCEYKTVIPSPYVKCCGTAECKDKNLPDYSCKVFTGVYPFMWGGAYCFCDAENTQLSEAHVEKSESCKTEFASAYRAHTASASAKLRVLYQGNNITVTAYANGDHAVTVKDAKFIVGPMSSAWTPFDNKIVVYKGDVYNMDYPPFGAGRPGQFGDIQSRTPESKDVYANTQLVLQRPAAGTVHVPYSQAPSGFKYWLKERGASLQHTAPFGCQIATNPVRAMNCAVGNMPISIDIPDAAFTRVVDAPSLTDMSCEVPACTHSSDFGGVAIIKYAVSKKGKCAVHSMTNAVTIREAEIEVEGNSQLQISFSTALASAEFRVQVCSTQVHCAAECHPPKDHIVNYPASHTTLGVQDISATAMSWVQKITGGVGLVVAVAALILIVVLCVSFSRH
Chain of CHIKV VLP (Q8JUX5 326-748 limits assumed, chain 2 of 2): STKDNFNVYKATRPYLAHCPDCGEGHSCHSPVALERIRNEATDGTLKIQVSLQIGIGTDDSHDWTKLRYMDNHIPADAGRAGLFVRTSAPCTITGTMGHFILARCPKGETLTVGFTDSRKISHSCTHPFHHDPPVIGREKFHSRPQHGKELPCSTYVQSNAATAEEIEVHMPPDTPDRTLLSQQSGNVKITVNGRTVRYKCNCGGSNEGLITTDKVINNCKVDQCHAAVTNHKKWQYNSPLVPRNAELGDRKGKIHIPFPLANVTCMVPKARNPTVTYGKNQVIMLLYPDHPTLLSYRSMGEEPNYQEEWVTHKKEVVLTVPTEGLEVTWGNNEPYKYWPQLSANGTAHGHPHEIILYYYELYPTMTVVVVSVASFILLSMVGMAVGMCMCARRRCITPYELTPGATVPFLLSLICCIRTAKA

B1: SKT05 (antibody, V domains shown)
VH: EVQLVESGAGLVQPGGSLRLSCAASGFTFSDSWMSWVRQSPGKGLEWVGRIKGKPDGETAAYAASVKGRFSISRDDSKNTLYLQMNSLKTEDTAVYYCTRDDRTSCRRGVCYAAFHSWGQGVLVTVSS
VL: DIQMTQSPSSLSASAGDRVTLTCRASQAISFYLAWYQQKPGKAPKRLIYDASELQGGVPSRFSGSGSGTDFTLSINSLQPEDSATYFCLQYDSPPFTFGPGTKVEIKR
EC50 (CHIKV VLP): 0.1 µg/mL
IC80, neutralization of Env-pseudotyped lentiviral reporter virus [1]: 0.07 µg/mL
IC80, neutralization of Env-pseudotyped lentiviral reporter virus [2]: 0.39 µg/mL
IC80, neutralization of Env-pseudotyped lentiviral reporter virus [3]: 0.06 µg/mL

Source: US20260199447A1 (US Dept. of Health and Human Services, published 2026)
